Reference: patent US20070178531A1 (BIOCHECK, published 2007)
Where a chain is given by its changes, count along the chain named. Like-named read-outs stand apart in the source and are kept apart here.

B1: rabbit monoclonal anti-human Id3, clone #BCH-4/#3-3 (antibody, V domains shown)
VH: QSVEESGGRLVTPGTPLTLTCTVSGIDLSSYAMSWVRQAPGKGLEWIGVIFPSNNVYYASWAKGRFTISKTSTTVDLKITSPTTEDTATYFCASMGAFDSWGPGTLVTVSS
VL: QVLTQTPSPVSAAVGGTVTINCQASQSIYNDNDLAWFQQKPGQPPKLLIYDASTLTSGVPSRFKGSGSGTQFTLTISDLDCDDAATYYCAARYSGNIYGFGGGTEVVVK
notes: Rabbit IgG from a rabbit hybridoma; also called h Id3 MoAb 3-3
B2: rabbit monoclonal anti-mouse/human Id3, clone #BCH-4/#16-1 (antibody, V domains shown)
VH: QSVEESGGRLVTPGTPLTLTCTASGFSLSSYYIHWVRQAPGKALEWIGYISDGGTTYYASWAKGRFTISKTSSTTVDLKMTSLTTEDTATYFCARQGFNIWGPGTLVTVSL
VL: AVLTQTPSPVSAAVGGTVTISCQSSQSVYNNNWLSWFQQKSGQPPKLLIYETSKLESGVPSRFKGSGSGTQFTLTIIDVQCDDAATYYCLGGYWTTSDNNIFGGGTEVVVK
notes: Rabbit IgG from a rabbit hybridoma; also called m/h Id3 MoAb 16-1
B3: rabbit monoclonal anti-mouse/human Id3, clone #BCH-4/#17-3 (antibody, V domains shown)
VH: B2 VH with S30N, Y31V, A43G, G54D, T56A, Y57R, S60T, D77N
VL: B2 VL with T19S, Y29W, S41P, I77S, I101V
notes: Rabbit IgG from a rabbit hybridoma; also called m/h Id3 MoAb 17-3; BCH-3/#17-3
B4: rabbit monoclonal anti-mouse/human Id3, clone #BCH-4/#6-1 (antibody, V domains shown)
VH: B2 VH with S30N, Y31V, A43G, G54D, T56A, Y57R, S60T, D77N
VL: B2 VL with T19S, Y29W, S41P, I77S, I101V
notes: Rabbit IgG from a rabbit hybridoma; also called m/h Id3 MoAb 6-1
B5: rabbit monoclonal anti-mouse/human Id3, clone #BCH-4/#42-1 (antibody, V domains shown)
VH: B2 VH
VL: B2 VL with T95S
notes: Rabbit IgG from a rabbit hybridoma; also called m/h Id3 MoAb 42-1

Assays:
[1] = molecular target: T1, Human Id1: Histidine (human, UniProt P41134 1-155, limits assumed); assay: ELISA, Ab 0.050 µg/ml
T1 construct: Fusion protein made in E. coli from vector pGW07; also called h-Id1: his; not shown: His tag
T1 sequence (looked up): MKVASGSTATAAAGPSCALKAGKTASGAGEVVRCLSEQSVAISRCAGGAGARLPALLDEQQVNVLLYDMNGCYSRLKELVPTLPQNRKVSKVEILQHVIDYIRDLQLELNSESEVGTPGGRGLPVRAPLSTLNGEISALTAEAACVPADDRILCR
Procedure: The rabbit monoclonal anti-human Id3 (clone #3-3) and the rabbit monoclonal anti-mouse/human Id3 (clones #6-1, 16-1, 17-3, and 42-1) produced in Example 6 were tested reactivity against the following antigens: mouse Id1:His, human Id1:His, mouse Id2:His, human Id2:His, mouse Id3:His, human Id3:His, mouse Id4:His, human Id4:His and GST.
1. Microtiter wells (prepared in accordance with Example 6) were coated (0.1 μg/well) with mouse Id1:His, human Id1:His, human Id2:His, human Id3:His, and 1.0 μg/well with GST. [0155] 2. Antibody Diluent: 0.25% (w/v) BSA in 0.015M KPO₄ Buffer, 0.85% (w/v) NaCl, 0.1% (w/v) NaN₃, pH=7.40 [0156] 3. Rabbit monoclonal anti-human Id3 (clone #3-3) prepared in Example 7 was diluted to […] with the antibody diluent. […] 4. Rabbit monoclonal anti-mouse/human Id3 (clones #6-1, 16-1, 17-3, 42-1) prepared in Example 7 was diluted to 0.005, 0.010, 0.025, 0.05, 0.10, 0.25, and 0.50 μg/ml with the antibody diluent. […] 5. Conjugate Diluent: 50% (v/v) which consists of an aqueous solution containing Fetal Bovine Serum in 0.05 M Tris, 1% (v/v) Proclin-300, pH 7.6. [0159] 6. Conjugate: Goat anti-rabbit IgG (H+L)-HRP conjugate. [0160] 7. TMB reagent. […] 8. Stop solution (1 N HCI). Method
1. Dispense 100 μL of antibody diluent, diluted rabbit monoclonal human Id3, and mouse/human Id3 hybridoma supernatants into appropriate wells. […] 2. Incubate at room temperature with mechanical shaking at 750 rpm for 90 minutes. [0165] 3. Remove the incubation mixture by flicking plate content into an appropriate waste container followed by rinsing the wells 5 times with distilled water. [0166] 4. Strike the wells sharply onto absorbent paper or paper towels to remove all residual water droplets. [0167] 5. Dispense 100 μL of 1:50,000 Goat Anti-Rabbit IgG-HRP Conjugate Reagent into each well. Gently mix for 5 seconds. [0168] 6. Incubate at room temperature with mechanical shaking at 750 rpm for 90 minutes. [0169] 7. Repeat procedures 3 and 4. [0170] 8. Dispense 100 μL of TMB Reagent into each well. Gently mix for 5 seconds. [0171] 9. Incubate at room temperature with mechanical shaking at 750 rpm for 20 minutes. […] 10.

[2] = molecular target: T2, Mouse Id4: Histidine (mouse, UniProt P41139 1-161, limits assumed); assay: ELISA on coated wells, summary
T2 construct: Fusion protein made in E. coli from vector pGW07; also called m-Id4: His; not shown: His tag
T2 sequence (looked up): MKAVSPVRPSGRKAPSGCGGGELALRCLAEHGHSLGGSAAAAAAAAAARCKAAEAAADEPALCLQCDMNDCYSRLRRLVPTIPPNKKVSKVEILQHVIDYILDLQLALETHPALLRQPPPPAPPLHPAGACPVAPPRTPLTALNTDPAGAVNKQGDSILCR

[3] = molecular target: T3, glutathione S-transferase (GST) (UniProt P08515 1-218 = GST); assay: ELISA, Ab 0.005 µg/ml
T3 construct: also called carrier protein GST
T3 sequence (P08515 whole entry): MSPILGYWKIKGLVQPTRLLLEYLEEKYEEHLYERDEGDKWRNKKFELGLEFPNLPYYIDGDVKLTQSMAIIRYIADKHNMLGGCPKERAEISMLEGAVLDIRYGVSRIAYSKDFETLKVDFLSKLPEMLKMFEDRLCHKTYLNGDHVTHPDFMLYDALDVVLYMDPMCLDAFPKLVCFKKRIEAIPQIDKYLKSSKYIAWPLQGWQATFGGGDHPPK

[4] = molecular target: T1, Human Id1: Histidine; assay: ELISA, Ab 0.050 µg/ml; remark: listed apart in the source
[5] = molecular target: T4, Mouse Id3: Histidine (mouse, UniProt P41133 1-119); assay: ELISA, Ab 0.050 µg/ml
T4 construct: Fusion protein made in E. coli from vector pGW07; also called m-Id3: His; Mouse Id3 (coated wells); not shown: His tag
T4 sequence: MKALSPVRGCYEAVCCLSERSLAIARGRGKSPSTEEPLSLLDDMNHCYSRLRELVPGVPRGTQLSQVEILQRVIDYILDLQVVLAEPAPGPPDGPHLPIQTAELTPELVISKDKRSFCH

[6] = molecular target: T5, Human Id3: Histidine (human, UniProt Q02535 1-119 at identity 1.00)); assay: ELISA, Ab 0.050 µg/ml
T5 construct: Fusion protein made in E. coli from vector pGW07; also called h-Id3: His; Human Id3 (coated wells); not shown: His tag
T5 chain: T4 sequence with S31G, S33A, T34A, T105A, K112N

[7] = molecular target: T6, Human Id2: Histidine (human, UniProt Q02363 1-134, limits assumed); assay: ELISA, Ab 0.050 µg/ml
T6 construct: Fusion protein made in E. coli from vector pGW07; also called h-Id2: His; not shown: His tag
T6 sequence (looked up): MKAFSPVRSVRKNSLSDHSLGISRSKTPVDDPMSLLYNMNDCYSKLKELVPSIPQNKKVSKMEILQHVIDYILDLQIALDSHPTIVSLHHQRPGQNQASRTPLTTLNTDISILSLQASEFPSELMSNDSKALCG

[8] = molecular target: T7, Mouse Id2: Histidine (mouse, UniProt P41136 1-134, limits assumed); assay: ELISA, Ab 0.050 µg/ml
T7 construct: Fusion protein made in E. coli from vector pGW07; also called m-Id2: His; not shown: His tag
T7 sequence (looked up): T6 sequence (looked up) with S60T, A131V

[9] = molecular target: T8, Mouse Id1: Histidine (mouse, UniProt P20067-2 1-148, limits assumed); assay: ELISA, Ab 0.050 µg/ml
T8 construct: Fusion protein made in E. coli from vector pGW07; also called m-Id1-His; not shown: His tag
T8 sequence (looked up): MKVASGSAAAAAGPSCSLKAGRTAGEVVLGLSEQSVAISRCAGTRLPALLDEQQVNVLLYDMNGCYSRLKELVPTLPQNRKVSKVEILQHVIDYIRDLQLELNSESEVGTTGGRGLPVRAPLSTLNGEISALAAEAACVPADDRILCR

Row | Binder | A450 [1] [A450] | Cross-reactivity (%) [2] [%] | A450 [3] [A450] | A450 [4] [A450] | A450 [5] [A450] | A450 [6] [A450] | A450 [7] [A450] | A450 [8] [A450] | A450 [9] [A450]
1 | B1 | 0.05 | < 1 | 0.045 | – | – | – | – | – | –
2 | B2 | 0.047 | – | 0.048 | – | – | – | – | – | –
3 | B3 | 0.044 | – | 0.048 | – | – | – | – | – | –
4 | B4 | 0.052 | – | 0.046 | 0.091 | 1.72 | 1.52 | 0.086 | 0.093 | 0.093
5 | B5 | 0.045 | – | 0.048 | – | – | – | – | – | –
